This note sets out measurements from paper PMC11459484.

The assay concerns the target Selenomonas sp. HNH-Cascade Cas7 (Cas7f1) (Selenomonas sp.). The experiment in a line: cryo-EM structure; SsCascade RNP (Cas5/6/7/8 and processed crRNA) co-expressed in E. coli, purified by Ni-NTA and gel filtration, mixed with target DNA at ambient temperature for 5 minutes; Map A 3.48 Å, Map B 3.28 Å. In general terms: SEC sorts molecules by how far they enter the pores of the column.

What is called stoichiometry N is a count of units in the complex or per binding partner. Regarding “Selenomonas sp. HNH-Cascade Cas7 (Cas7f1) (natural protein)”, the stoichiometry N turned out to be 6.
